Assay results reported in publication PMC9181698 (International Journal of Molecular Sciences, 2022).

B1: LW25.6, individual helix 2 of LCB1 (peptide)
chain: GHAEASMRVSDLIYEFMKKG
HELM: PEPTIDE1{[O=C1N[C@H]2[C@H](CS[C@H]2CCCCC(=O)[*:2])N1].[O=C(COCCOCCN[*:1])[*:2]].G.H.A.E.A.S.M.R.V.S.D.L.I.Y.E.F.M.K.K.G.[am]}$$$$V2.0
SMILES: CC[C@H](C)[C@H](NC(=O)[C@H](CC(C)C)NC(=O)[C@H](CC(=O)O)NC(=O)[C@H](CO)NC(=O)[C@@H](NC(=O)[C@H](CCCNC(=N)N)NC(=O)[C@H](CCSC)NC(=O)[C@H](CO)NC(=O)[C@H](C)NC(=O)[C@H](CCC(=O)O)NC(=O)[C@H](C)NC(=O)[C@H](Cc1c[nH]cn1)NC(=O)CNC(=O)COCCOCCNC(=O)CCCC[C@@H]1SC[C@@H]2NC(=O)N[C@@H]21)C(C)C)C(=O)N[C@@H](Cc1ccc(O)cc1)C(=O)N[C@@H](CCC(=O)O)C(=O)N[C@@H](Cc1ccccc1)C(=O)N[C@@H](CCSC)C(=O)N[C@@H](CCCCN)C(=O)N[C@@H](CCCCN)C(=O)NCC(N)=O
notes: source: synthetic peptide (Fmoc/tBu solid-phase synthesis, preparative HPLC)
B2: LW25.5, individual helix 1 of LCB1 (peptide)
chain: DKEWILQKIYEIMRLLDEL
HELM: PEPTIDE1{[O=C1N[C@H]2[C@H](CS[C@H]2CCCCC(=O)[*:2])N1].[O=C(COCCOCCN[*:1])[*:2]].D.K.E.W.I.L.Q.K.I.Y.E.I.M.R.L.L.D.E.L.[am]}$$$$V2.0
SMILES: CC[C@H](C)[C@H](NC(=O)[C@H](Cc1c[nH]c2ccccc12)NC(=O)[C@H](CCC(=O)O)NC(=O)[C@H](CCCCN)NC(=O)[C@H](CC(=O)O)NC(=O)COCCOCCNC(=O)CCCC[C@@H]1SC[C@@H]2NC(=O)N[C@@H]21)C(=O)N[C@@H](CC(C)C)C(=O)N[C@@H](CCC(N)=O)C(=O)N[C@@H](CCCCN)C(=O)N[C@H](C(=O)N[C@@H](Cc1ccc(O)cc1)C(=O)N[C@@H](CCC(=O)O)C(=O)N[C@H](C(=O)N[C@@H](CCSC)C(=O)N[C@@H](CCCNC(=N)N)C(=O)N[C@@H](CC(C)C)C(=O)N[C@@H](CC(C)C)C(=O)N[C@@H](CC(=O)O)C(=O)N[C@@H](CCC(=O)O)C(=O)N[C@@H](CC(C)C)C(N)=O)[C@@H](C)CC)[C@@H](C)CC
notes: as for B1

Target: T1, SARS-CoV-2 spike protein RBD-Fc fusion protein, wild type (SARS-CoV-2, UniProt P0DTC2)
T1 construct: source: bought: Sino Biological
Assay: ELISA
Settings: both partners purified

Binder | IC50
B1 | > 200 nM
B2 | > 200 nM
